The supplement of paper PMC12338614

B1: library; numbered along this chain (parent)
chain: MEVVDPQQLGMFTEGELMSVGMDTFIHRIDSTEVIYQPRRKRAKLIGKYLMGDLLGEGSYGKVKEVLDSETLCRRAVKILKKKKLRRIPNGEANVKKEIQLLRRLRHKNVIQLVDVLYNEEKQKMYMVMEYCVCGMQEMLDSVPEKRFPVCQAHGYFCQLIDGLEYLHSQGIVHKDIKPGNLLLTTGGTLKISDLGVAEALHPFAADDTCRTSQGSPAFQPPEIANGLDTFSGFKVDIWSAGVTLYNITTGLYPFEGDNIYKLFENIGKGSYAIPGDCGPPLSDLLKGMLEYEPAKRFSIRQIRQHSWFRKKHPPAEAPVPIPPSPDTKDRWRSMTVVPYLEDLHGADEDEDLFDIEDDIIYTQDFTVPGQVPEEEASHNGQRRGLPKAVCMNGTEAAQLSTKSRAEGRAPNPARKACSASSKIRRLSACKQQ

Variants of: B1
Experiment: STK11 functional score (HeLa growth suppression), rescaled enrichment; synonymous median = 1, nonsense median = 0 (normalised score)
Conditions: with HeLa; variant type: missense
Summary of the method: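 In HeLa, Bxb1 integrated POPCode codon-randomised libraries of codon-optimised STK11 at an AAVS1 landing pad; three regions were each transfected three times. Integrants, marked as BFP-negative and mCherry-positive, were FACS-sorted 4–5 days after electroporation and expanded for about two weeks before tiled gDNA amplicons were sequenced on NextSeq (~2 million reads per tile). Each functional score is a post/pre-selection log ratio corrected to wild type, rescaled to the synonymous and nonsense medians, and merged across codons and replicate transfections, with error estimated by bootstrapping.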

STK11 functional score, by site and new letter:
G188: C 0.212; A 0.938; L 0.732; D 1.43; W 0.946; F 0.918; Y 1.6; P 1.36; M -0.0265
L195: A 1.17; P 1.49; V 0.433; I 1.44; G 0.969; F 1.46; W 0.87; S 0.972; E 1.59; R 0.0408; D 1.64; T 1.67
P203: R 1.01; A 0.904; L 1.27; S 1.68; H 0.686
I192: N 1.23; C 1.43; T -0.0391; M 1.25; V 1.33; Y 1.11; W 0.0777; F 1.13
T185: I 0.548; S 0.939; D 0.415; N 0.509; Y 0.976; H 0.484; P 0.0618; W 0.387; R 0.992; G 0.548; V 0.913; C 1.13; L 1.08; F 0.993
S193: V 0.77; W 0.0192; L 0.696; N 1.61; F -0.0251; Y -0.104; M 0.111; K 0.0789; I 1.17; E 1.54; C 0.963; R -0.142; G 0.596; A 0.853; H 0.192; T 1.22
L190: V 1; M 1.21; P 0.0599; D -0.215; I 1.04; F 0.343; S 0.0644; G 0.073; W 0.118; Y 0.0792; R 0.223; A 0.537
A205: D 1.33; S 1.18; H 1.33; C 1.25; E 1.64; P 0.302; R 1.23; F 1.35; G 0.712; Q 1.33; W 1.7; L 0.703; V 1.09; I 1.47
D194: L -0.0619; G -0.36; I -0.258; E -0.268; S -0.236; P -0.348; Y -0.089; H -0.252; V -0.261; F -0.213; C -0.228; R -0.0399
G196: V 1.08; A 0.488; R -0.0503
K191: W 0.459; N 0.186; A 1.12; T 1.16; C 0.0918; D -0.393; V 1.19; I 1.19; L 0.262; G 0.729; S 1.17; F 0.589; R 1.42
D207: W 0.239; V 1.09; P 1.01; M 1.17; S 0.778; E 1.48; A 1.27; R 1.55; L 0.856; G 0.954; N 0.668; H 1.37; Y 0.314
D208: M 1.7; V 1.06; N 1.4; I 1.31; W 0.524; Q 1.58; L 1.36; E 1.38; C 1.26; R 1.59; S 1.26; P 1.62; Y 0.93; G 1.37; T 1.04; A 1.19
T189: C 1.15; L 1.24; V 1.3; R 1.41; Y 0.71; G 0.924; P 1.12; F 1.25; I 1.33; W 1.2; N 0.455
R211: D 1.68; H 1.32; I 0.844; L 1.21; E 1.53; G 1.51; C 1.25; A 1.28; F 1.61
